Target: T1, Med23, myc-tagged fusion protein expressed in HEK cells (human, UniProt Q9ULK4 1-1368)
T1 sequence (looked up): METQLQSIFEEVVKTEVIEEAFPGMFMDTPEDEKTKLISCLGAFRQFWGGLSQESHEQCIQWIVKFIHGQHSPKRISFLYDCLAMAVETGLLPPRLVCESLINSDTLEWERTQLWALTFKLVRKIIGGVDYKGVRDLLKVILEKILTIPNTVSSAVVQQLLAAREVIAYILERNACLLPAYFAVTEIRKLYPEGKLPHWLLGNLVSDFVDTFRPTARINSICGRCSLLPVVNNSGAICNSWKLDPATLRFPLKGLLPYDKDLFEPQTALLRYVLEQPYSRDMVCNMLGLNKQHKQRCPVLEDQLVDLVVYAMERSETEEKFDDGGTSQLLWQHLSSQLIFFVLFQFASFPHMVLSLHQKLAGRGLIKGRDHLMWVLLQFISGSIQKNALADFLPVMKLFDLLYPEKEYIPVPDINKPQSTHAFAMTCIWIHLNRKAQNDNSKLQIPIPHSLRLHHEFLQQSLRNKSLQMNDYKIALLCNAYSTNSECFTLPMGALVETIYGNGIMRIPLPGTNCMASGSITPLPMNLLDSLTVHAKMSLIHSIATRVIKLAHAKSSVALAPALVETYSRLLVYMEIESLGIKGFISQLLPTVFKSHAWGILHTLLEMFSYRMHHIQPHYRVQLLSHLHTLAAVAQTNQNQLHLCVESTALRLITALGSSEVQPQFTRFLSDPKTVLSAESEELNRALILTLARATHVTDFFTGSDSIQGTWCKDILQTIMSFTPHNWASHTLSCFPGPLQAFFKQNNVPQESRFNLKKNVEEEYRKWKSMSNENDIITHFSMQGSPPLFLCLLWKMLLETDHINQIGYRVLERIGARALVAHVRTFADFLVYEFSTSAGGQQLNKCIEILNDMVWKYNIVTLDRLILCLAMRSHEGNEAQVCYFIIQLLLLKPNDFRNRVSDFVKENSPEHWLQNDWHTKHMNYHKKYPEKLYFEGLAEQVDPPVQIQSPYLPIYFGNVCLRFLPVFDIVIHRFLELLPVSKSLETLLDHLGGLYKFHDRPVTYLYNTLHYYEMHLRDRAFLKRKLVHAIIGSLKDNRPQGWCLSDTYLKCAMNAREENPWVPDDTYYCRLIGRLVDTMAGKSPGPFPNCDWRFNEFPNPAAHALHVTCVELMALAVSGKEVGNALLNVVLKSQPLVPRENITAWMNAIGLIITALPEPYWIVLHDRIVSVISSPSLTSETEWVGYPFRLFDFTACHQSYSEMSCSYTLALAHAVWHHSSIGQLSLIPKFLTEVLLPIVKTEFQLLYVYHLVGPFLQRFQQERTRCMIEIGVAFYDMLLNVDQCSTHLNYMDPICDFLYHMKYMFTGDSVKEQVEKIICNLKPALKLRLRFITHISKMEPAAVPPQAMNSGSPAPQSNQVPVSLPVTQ
Test: cell-based or functional assay

- IFN-λ1 promoter luciferase reporter in A549 cells, IRF7 co-expressed with Med23 (IRF7 alone ~9-fold over background): ~18 fold
- IFN-λ3 in the supernatant of A549 cells by ELISA, Med23 co-expressed with IRF7 against either alone: > 2 fold
B1: IRF7, HA-tagged, expressed in HEK cells (natural protein, human, UniProt Q92985 1-503, looked up)
chain: MALAPERAAPRVLFGEWLLGEISSGCYEGLQWLDEARTCFRVPWKHFARKDLSEADARIFKAWAVARGRWPPSSRGGGPPPEAETAERAGWKTNFRCALRSTRRFVMLRDNSGDPADPHKVYALSRELCWREGPGTDQTEAEAPAAVPPPQGGPPGPFLAHTHAGLQAPGPLPAPAGDKGDLLLQAVQQSCLADHLLTASWGADPVPTKAPGEGQEGLPLTGACAGGPGLPAGELYGWAVETTPSPGPQPAALTTGEAAAPESPHQAEPYLSPSPSACTAVQEPSPGALDVTIMYKGRTVLQKVVGHPSCTFLYGPPDPAVRATDPQQVAFPSPAELPDQKQLRYTEELLRHVAPGLHLELRGPQLWARRMGKCKVYWEVGGPPGSASPSTPACLLPRNCDTPIFDFRVFFQELVEFRARQRRGSPRYTIYLGFGQDLSAGRPKEKSLVLVKLEPWLCRVHLEGTQREGVSSLDSSSLSLCLSSANSLYDDIECFLMELEQPA

— article PMC3738494, “A Systematic Analysis of Host Factors Reveals a Med23-Interferon-λ Regulatory Axis against Herpes Simplex Virus Type 1 Replication” (PLoS Pathogens, 2013)
